Positions count from the first letter of the chain named. Like-named read-outs stand apart in the source and are kept apart here. No end group written: not given here. *: point of attachment. Biotin = O=C1N[C@H]2[C@H](CS[C@H]2CCCCC(=O)*)N1
Tests used:
[1] = target: T1, biotin-apelin-13 (biotin-…) (N-terminal biotin); assay: SPR (Biacore) with biotin-apelin-13, humanized IgG1 mAb in HEK293 supernatant
T1 construct: also called Biotin-APL13
From the text: The rabbit anti-apelin mAb C8 was humanized to reduce the potential of immunogenicity when used in human patients. The sequences of the variable regions of the heavy and light chains (VH and VL) were compared with the human antibody sequences in the Protein Data Bank (PDB) database and a homology model was built by applying SWISS-modeling. The CDRs in both the heavy and light chains of the rabbit mAb were grafted into human frameworks that have the highest possibility of maintaining the proper structure likely required for antigen binding. Backmutations from human residue to rabbit residue were designed when necessary. The sequences of the humanized VH and VL regions are shown in Table 11 and Table 12, respectively. The humanized VH and VL regions were fused to human IgG1 heavy chain and kappa light chain constant regions, respectively, to generate humanized mAbs. Constructs corresponding to the mAb sequences were used for transient transfection in HEK 293 cells and the supernatants were analyzed for the affinity of each humanized mAb for apelin.

[2] = target: apelin 13 (competition peptide 1-13, …); assay: cell-based or functional assay
[3] = target: T2, pyro-apelin 13 (N-terminal pyroglutamate); assay: cell-based or functional assay
T2 peptide: ERPRLSHKGPMPF

[4] = target: T3, pyr-apelin-13-biotin (pE-RPRLSHKGPMPF-biotin) (N-terminal pyroglutamate (pE); C-terminal biotin); assay: SPR (Biacore), pyr-apelin-13-biotin on streptavidin chip
T3 construct: also called pyrAPL13-Biotin
T3 peptide: ERPRLSHKGPMPF
Method: (§1) Anti-apelin mAbs at four different concentrations (12.5 nM, 25 nM, 50 nM and 100 nM) were captured on the chip surface. The on- and off-rate for antibody-antigen binding were measured, curve fitted and calculated.

[5] = target: T4, APL17-Biotin; assay: ELISA, peptide on neutravidin plate, mAb 200 ng/ml, A405
T4 peptide: KFRRQRPRLSHKGPMPF-biotin
Method: (§2) FIGS. 1A-1C show binding of anti-apelin mAbs to various biotinylated apelin peptides measured by ELISA. Biotinylated apelin peptides were immobilized on ELISA plates coated with neutravidin and purified recombinant rabbit anti-apelin mAbs were added for binding to the peptides on the plates. The binding was detected by adding a goat anti-rabbit IgG Fc-conjugated to alkaline phosphatase and PNPP substrate, and measured as the absorbance at 405 nm.
(§3) For the binding assay, neutravidin in carbonate coating buffer was coated on high binding ELISA plates at 1 μg/ml overnight. Peptides were added at 4 μg/ml after the plates were blocked with 1% BSA in TBS. After incubation of the plates at room temperature for 60 minutes, the plates were washed and then purified recombinant rabbit antibodies were added at 200 ng/ml. Following rabbit antibody binding to the peptides on the plates at room temperature for 90 minutes, goat anti-rabbit IgG Fc-conjugated to alkaline phosphatase was added, and antibody-antigen binding was detected by adding PNPP substrate and reading absorbance of ELISA plates at 405 nm. Each mAb was assayed in duplicate.

[6] = target: T5, Biotin-APL17; assay: as above
T5 peptide: Biotin-KFRRQRPRLSHKGPMPF
Method: as §2, §3

[7] = target: T6, apelin-13-biotin (…-biotin) (C-terminal biotin); assay: SPR (Biacore), apelin-13-biotin on streptavidin chip
T6 construct: also called APL13-Biotin
Method: as §1

[8] = target: T7, apelin peptide 1-11 (QRPRLSHKGPM); assay: competition ELISA, captured mAb, peptide competes with apelin-13-biotin, A405
T7 peptide: QRPRLSHKGPM

[9] = target: T8, apelin peptide 1-12 (QRPRLSHKGPMP); assay: as above
T8 peptide: QRPRLSHKGPMP

[10] = target: T9, apelin peptide 2-13 (RPRLSHKGPMPF); assay: as above
T9 peptide: RPRLSHKGPMPF

[11] = target: T10, 1-4; assay: as above
T10 construct: also called apelin peptide 1-4 (QRPR)
T10 peptide: QRPR

[12] = target: T11, apelin peptide 1-10 (QRPRLSHKGP); assay: as above
T11 peptide: QRPRLSHKGP

[13] = target: T12, apelin peptide 1-7 (QRPRLSH); assay: as above
T12 peptide: QRPRLSH

[14] = target: T13, apelin peptide 1-9 (QRPRLSHKG); assay: as above
T13 peptide: QRPRLSHKG

[15] = target: T14, apelin peptide 1-6 (QRPRLS); assay: as above
T14 peptide: QRPRLS

[16] = target: T15, apelin 17 (competition peptide 1-17, KFRRQRPRLSHKGPMPF); assay: as above
T15 peptide: KFRRQRPRLSHKGPMPF

[17] = target: T16, apelin peptide 1-5 (QRPRL); assay: as above
T16 peptide: QRPRL

[18] = target: T17, apelin peptide 1-8 (QRPRLSHK); assay: as above
T17 peptide: QRPRLSHK

[19] = target: T7, apelin peptide 1-11 (QRPRLSHKGPM); assay: as above
[20] = target: T8, apelin peptide 1-12 (QRPRLSHKGPMP); assay: as above
[21] = target: T9, apelin peptide 2-13 (RPRLSHKGPMPF); assay: as above
[22] = target: T10, 1-4; assay: as above
[23] = target: T11, apelin peptide 1-10 (QRPRLSHKGP); assay: as above
[24] = target: T12, apelin peptide 1-7 (QRPRLSH); assay: as above
[25] = target: T13, apelin peptide 1-9 (QRPRLSHKG); assay: as above
[26] = target: T14, apelin peptide 1-6 (QRPRLS); assay: as above
[27] = target: T15, apelin 17 (competition peptide 1-17, …); assay: as above
[28] = target: T16, apelin peptide 1-5 (QRPRL); assay: as above
[29] = target: T17, apelin peptide 1-8 (QRPRLSHK); assay: as above
[30] = target: T18, alanine scanning peptide 3A (QRARL); assay: as above
T18 peptide: QRARL
Method: (§4) Each peptide or control sample was assayed in duplicate for a given mAb.

[31] = target: T19, alanine scanning peptide 4A (QRPAL); assay: as above
T19 peptide: QRPAL
Method: as §4

[32] = target: T20, alanine scanning peptide 5A (QRPRA); assay: as above
T20 peptide: QRPRA
Method: as §4

[33] = target: T21, alanine scanning peptide 1A (ARPRL); assay: as above
T21 peptide: ARPRL
Method: as §4

[34] = target: T22, alanine scanning peptide 2A (QAPRL); assay: as above
T22 peptide: QAPRL
Method: as §4

B1: humanized anti-apelin mAb A31 (human IgG1 backbone) (antibody, V domains shown)
VH: QSLEESGGGLVQPGGSLRLSCAVSGIDLYSNRMSWVRQAPGKGLEWVGSIGSSPWYASWAQGRFTISRDNSNTVYLQMNSLTAEDTATYFCAKGGYRPGASVWGQGTLVTVSS
VL: DIQLTQSPSSLSASVGDRVTITCQSSQSIYDNNDLAWYQQKPGKTPKRLIYLASSLDSGVPSRFSGSGSGTDFTLTISSLQPEDVATYYCAGGYSGDIYTFGGGTKVEIK
notes: humanized from C8; tested as HEK293 supernatant
Kd [1]: 0.148 pM
IC50 [2]: 25000 pM
IC50 [3]: 19900 pM

B2: anti-apelin mAb C1 (antibody, V domains shown)
VH: QSLEESGGRLVTPGGSLTLTCTVSGFSLSSYAMDWVRQAPGKGLEWIGVIAPNGATYYPTWARGRFTISKTSTTVDLKMTSLTAADTATYFCATYPIDAGANIWGPGTLVTVSS
VL: DPVLTQTPSSVSAAVGGTVTIGCQSSESVDNNNQLSWYQQKSGQPPKRLMYYVSTLDSGVPSRFKGSGSGTHFTLTISGVQCYDAATYYCQGGYISNLYPFGGGTEVVVK
notes: recombinant rabbit IgG made in HEK293 cells
Kd [4]: 0.154 pM
binding result [5]: no binding (tested: 200 ng/ml)
binding result [6]: no binding (tested: 200 ng/ml)
Kd [7]: 48.9 pM
binding result [8]: binds
binding result [9]: binds
binding result [10]: no binding (tested: peptide concentration not stated)
binding result [11]: no binding (tested: peptide concentration not stated)
binding result [12]: binds
binding result [13]: binds
binding result [14]: binds
binding result [15]: binds
binding result [16]: no binding (tested: peptide concentration not stated)
binding result [17]: binds
binding result [18]: binds

B3: anti-apelin mAb C6 (antibody, V domains shown)
VH: QSLEESGGRLVKPDETLTLTCTVSGIDLSNYAMDWVRQAPGKGLEWIGVIAPNRRTYYPTWARGRFTISKTSSTTVDLKMTSLTTEDTATYFCATYPIEPGANIWGPGTLVTVSS
VL: B2 VL with S10P, A14P, N31Y, S42P, H72Q, G79D, V80L, Q81E, Y83D, L98I
notes: as for B2
Kd [4]: 0.513 pM
binding result [19]: binds
binding result [20]: binds
binding result [21]: no binding (tested: peptide concentration not stated)
binding result [22]: no binding (tested: peptide concentration not stated)
binding result [23]: binds
binding result [24]: binds
binding result [25]: binds
binding result [26]: binds
binding result [27]: no binding (tested: peptide concentration not stated)
binding result [28]: binds
binding result [29]: binds
binding result [30]: no binding (tested: peptide concentration not stated)
binding result [31]: no binding (tested: peptide concentration not stated)
binding result [32]: no binding (tested: peptide concentration not stated)
binding result [33]: no binding (tested: peptide concentration not stated)
binding result [34]: no binding (tested: peptide concentration not stated)
binding result [5]: no binding (tested: 200 ng/ml)
binding result [6]: no binding (tested: 200 ng/ml)
Kd [7]: 5.96 pM
